The results in this text go back to the nanobody polyreactivity screen of Harvey et al. (2022).

The nature of the series: yeast display, Sf9 membrane polyspecificity reagent, FACS + sequencing; frameworks hold sequencing errors. The method in brief:
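Nanobodies came from a synthetic yeast display library in Saccharomyces cerevisiae BJ5465, induced with galactose for 36–48 hours and stained for 1 hour at 4 °C with 10% biotinylated, detergent-solubilized Sf9 membrane reagent. Cells were enriched on streptavidin microbeads and then FACS-sorted, with low and high (top ~1%) gates set on anti-HA fluorescence for expression and streptavidin fluorescence for reagent binding. Each polyreactivity label reflects the gate a clone came from. Genes were amplified by colony PCR, sequenced by MiSeq 2 × 250 and filtered by CDR length.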
Turning to “QVQLVESGGGLVQAGGSLRLSCAASGLTLTHYAMGWYRQAPGKERELVATISRSGGRTYYADSVKGRFTISRDNAKNTVYLQMNSLKPEDTAVYYCNAEYYYGRGWYDYWGQGTQVTVSS”, the “polyreactivity (PSR sort gate)” value is “high polyreactivity”.

As to “QVQLVESGGGLVQAGGSLRLSCAASGLTLYKNGMGWYRQAPGKERELVAVISRSGGRTYYADSVKGRFTISRDNAKNTVYVQMNSLKPEDTAVYYCAARQYGPRYTYYYWGQGTQVTVSS”, the “polyreactivity (PSR sort gate)” value is “high polyreactivity”.

Turning to “QVQLVESGGGLVQAGGSLRLSCAASGLTSLSYAIGWYRQAPGKERELVAAITLSGCRTYYADSVKGRFTISRDNAKNTVYLQMNSLIPEDTAVYFCAVAGYWYSYGRKYLTTFEYWGQGTQVTVSS”, the “polyreactivity (PSR sort gate)” value is “high polyreactivity”. In the case of “QVQLVESGGGLVQAGGSLRLSCAASGLTSNGYDMGWYRQAPGKERELVAGITSGGSPYYADSVKGRFTISRDNAKNTVYLQMNSLKPEDTAVYYCNADVTYYIVWEYDYWGQGTQVTVSS” it was “low polyreactivity”. In the case of “QVQLVESGGGLVQAGGSLRLSCAASGLTSNGYHMGWYRQAPGKERELVAGITSGGSTYYADSVKGRFTISRDNAKNTVYLQMNSLKPEDTAVYYCNADVTYYIVWEYDYWGQGTQVTVSS” it was “low polyreactivity”; in that of “QVQLVESGGGLVQAGGSLRLSCAASGLTSWYYAMGWYRQAPGKERELVAAITSGGSTYYADSVKGRFTISRDNAKNTVYLQMNSLKPEDTAVYYCAKKKRSYYYYPYDYWGQGTQVTVSS”, “high polyreactivity”.

With “QVQLVESGGGLVQAGGSLRLSCAASGLTYNRYTMGWYRQAPGKERELVAAITSSGSTYYADSVKGRFTISRDNAKYTVYLQMNSLKPEDTAVYYCNTVYYDWFHYDYWGQGTQVTVSS”, the “polyreactivity (PSR sort gate)” value is given as “high polyreactivity”. In the case of “QVQLVESGGGLVQAGGSLRLSCAASGLTYSNAMGCYRQAPGKERELVAAISWRGGRTYYADSVKGRFTISRDNAKNTVYLQMNSLKPEDTAVYYCAKYAHGHKWYGYWGQGNQVTVSS” it was “low polyreactivity”; in that of “QVQLVESGGGLVQAGGSLRLSCAASGLYAMGWYRQAPGKERELVADINSSGGSITNYADSVKGRFTISRDNAKNTVYLQMNSLKPEDTAVYYCAAPALGNYFYGYDYWGQGTQVTVSS”, “low polyreactivity”; in that of “QVQLVESGGGLVQAGGSLRLSCAASGMIFYTYVMGWYRQAPGKEREFVAGISTSGGRTDYADSVKGRFTISRDNAKNTVYLQMNSLKPEDTAVYYCNADYWQWYSYWYDYWGQGTQVTVSS”, “high polyreactivity”. Regarding “QVQLVESGGGLVQAGGSLRLSCAASGMTFGLYAMGWYRQAPGKERELVAAISKRGGSTNYADSVKGRFTISRDNAKNTVYLQMNSLKPEDTAGYYCAARYPQRGTGKATYVRSRSGYWGLGTQVTVSS”, the “polyreactivity (PSR sort gate)” value is on record as “high polyreactivity”.

As for “QVQLVESGGGLVQAGGSLRLSCAASGNAMGWYRQAPGKERELVAAITYGGTTTYYADTVKGRFTISRDNAKNTVYLQMTSQKPEDTAVYYCAADNVSVATPLRYDYWGQGTQVTVSS”, the “polyreactivity (PSR sort gate)” value was “low polyreactivity”. In the case of “QVQLVESGGGLVQAGGSLRLSCAASGNAMGWYRQAPGKERELVASINRSGGRTYYADSVKGRFTISRDNAKNTVYLQMISLKPEDTAVYYCGARPHYDSDYWGQGTQVTVSS” it was “low polyreactivity”. In the case of “QVQLVESGGGLVQAGGSLRLSCAASGNIFADYVMGWYRQAPGKERELVAAIDKSGGRTYYADSVKGRFTISRDNAKNTVYLQMNSLKPEDTAVYYCSAYDRYRRMDYWGQGTQVTVSS” it was “high polyreactivity”; in that of “QVQLVESGGGLVQAGGSLRLSCAASGNIFAIYAMGWYRPAPGKEREFVAAIDWSVASTYYADSVKGRFTISRDNAKNTVYLKMNSLKPEDTAVYYCAAELYCLKYGYYLSYDYWGQGTQVTVSS”, “high polyreactivity”. For “QVQLVESGGGLVQAGGSLRLSCAASGNIFAIYARGWYRQAPGKEREFVAAIDWSVASTYYADSVKGRFTISRDNEKNTVYLQMNSLTPEDTAVYSSAAELYGLKYGYYLSYDYWGQGTQVTVSS” the value was “high polyreactivity”. As for “QVQLVESGGGLVQAGGSLRLSCAASGNIFAYNAMGWYRQAPGKERELVASIRYSGGSTYYADSVKGRFTISRDNAKNTVYLQMNSLKPEDTAVYYCAKRGYSSYRTYNYWGQGTQVTVSS”, the “polyreactivity (PSR sort gate)” value was “high polyreactivity”.

Consider “QVQLVESGGGLVQAGGSLRLSCAASGNIFDLYAMGWYRQAPGKERELVAAITRSSSRTYYADSVKGRFTISRDNAKNTVYLQMNSLKPEDTAVYYCAAKYSNGSGFDYWGQGTQVTVSS”, for which the “polyreactivity (PSR sort gate)” value is “high polyreactivity”. In the case of “QVQLVESGGGLVQAGGSLRLSCAASGNIFDRYAMGWYRQAPGKERELVAGITWSGGSTYYADSVKGRFTISRDNAKNTVYLQMNSLKPEDTAVYYCGEANYYWGHGTQVTVSS” it was “low polyreactivity”; in that of “QVQLVESGGGLVQAGGSLRLSCAASGNIFDSNAMGWYRQAPGKERELVAAITWSGGSTYYADSVKGRFTISRDNAKNTVYLQMNSLKPEDTAVYYCNRYIRYYAWFGYWGQGTQVTVSS”, “high polyreactivity”. For “QVQLVESGGGLVQAGGSLRLSCAASGNIFDTYVMGWYRPAPGTERELVAAISSAGSTNYADSVKGRFTISRDNAKNTVYLQMNSLKPEDTAVYYCNADYWYYGYDYWGQGTQVTVSS” the value was “low polyreactivity”; for “QVQLVESGGGLVQAGGSLRLSCAASGNIFESYGMGWYRHAPGKERELVATINTSSGSTYDADSVKGRFTISRDNAKNTVYLQMNSLKPEDTAVYYCAAEWYPYPWGYGYWGQGTQVTVSS”, “low polyreactivity”; for “QVQLVESGGGLVQAGGSLRLSCAASGNIFETYAMGWYRQAPGKERELVAVITRGGSTYYADSVKGRFTISRDNAKNTVYLQMNSLKPEDTAVYYCARDAFDDWYGLTDDKSDYWGQGTQVTVSS”, “low polyreactivity”. In the case of “QVQLVESGGGLVQAGGSLRLSCAASGNIFFGNAMGWYRQAPGKERELVAVISKRGGSTYYADSVKGRFTISRDNAKNTVYLQMNSLKPEDTAVYYCAKVPTSRGNQLQQDGTKYDYWGQGTQVTVSS” it was “high polyreactivity”; in that of “QVQLVESGGGLVQAGGSLRLSCAASGNIFFTNAMGWYRQAPGKDRELVATISFRGTSTYYADSVKGRFTISRDNAKNTVYLQMNSLKPEDTAVYYCTARYSVFHRARVNLLGWGLYYWGQGTQVTVSS”, “low polyreactivity”. As for “QVQLVESGGGLVQAGGSLRLSCAASGNIFGAYAMGWYRQAPGKERELVARINSGAITNYADSVKGRFTISRDNAKNTVYLQMNSLKPEDTAVYYCNKDTYYAGSYLDYDYWGQGTQVTVSS”, the “polyreactivity (PSR sort gate)” value was “low polyreactivity”.

For the sequence “QVQLVESGGGLVQAGGSLRLSCAASGNIFGHYTRGWYRQAPAKERELVAAISRTGGRTYYADSVKGRFTISRDNAKNTVYLQMNSLKPEDTAVYDCDADKGGTYFNGDSWGQGTQVTVSS”, the “polyreactivity (PSR sort gate)” value is “high polyreactivity”.

Turning to “QVQLVESGGGLVQAGGSLRLSCAASGNIFGLNSMGWYRQAPGIDRELVSAISKSGGSTFYADSVKGRFKISRDNAKNTVYLQMNSLKPEDTAVYYCAARWNGARPNHTYGYWGQGTQVTVSS”, the “polyreactivity (PSR sort gate)” value was “high polyreactivity”. In the case of “QVQLVESGGGLVQAGGSLRLSCAASGNIFGSYAMGWYRQAPGKERELVAAIRTSGGSTYYADSVKGRFTISRDNAKNTVYLQMNSLKPEDTAVYYCATRSRTTKIVRWPGMYYWGQGTQVTVSS” it was “high polyreactivity”.

As to “QVQLVESGGGLVQAGGSLRLSCAASGNIFGVDAMGWYRQAPGKERELVATITTGGSTYYADSVKGRFTISRDNAKNTVYLQMNSLKPADTAVYYCAADVGGGNYVYYGNDYDDGYWGQGTQVTVSS”, the “polyreactivity (PSR sort gate)” value is “low polyreactivity”.
